Test results from patent publication US20250223358A1 (ANTENGENE BIOLOGICS, published 2025).
Read-outs that look alike come from different tables or passages of the source.

Assays:
human CD3 [1] = target: T1, human CD3 (human, UniProt P07766 23-207; P04234 22-171; P09693 23-182); assay: FACS on HEK293T-hCD3mix cells; also: test concentration or dose not given here
T1 construct: whole, on cells; also called hCD3; CD3 on Jurkat cells

human CD3 [2] = target: T1, human CD3; assay: FACS on Jurkat cells; as to FACS MFI: test concentration or dose not given here
human CD3 [3] = target: T1, human CD3; assay: FACS on Jurkat cells; remark: listed apart in the source; as to FACS MFI: test concentration or dose not given here
human CD3 [4] = target: T1, human CD3; assay: FACS on Jurkat cells; remark: listed apart in the source; as to FACS MFI: test concentration or dose not given here
human CD3 [5] = target: T1, human CD3; assay: cell-based or functional assay
human CD3 [6] = target: T1, human CD3; assay: cell-based or functional assay; remark: listed apart in the source
human CD3 [7] = target: T1, human CD3; assay: cell-based or functional assay; remark: listed apart in the source
human CD3 [8] = target: T1, human CD3; assay: FACS on Jurkat cells; remark: listed apart in the source; as to FACS MFI: test concentration or dose not given here
cynomolgus CD3 = target: T2, cynomolgus CD3 (cynomolgus (Macaca fascicularis), UniProt Q95LI5 22-198; Q95LI8 22-171; Q95LI7 23-181); assay: FACS on 293F-cynoCD3mix cells; also: test concentration or dose not given here
T2 construct: whole, on cells; composition of the 'mix' not defined; also called cynoCD3
T2 sequence (Q95LI5 22-198, chain 1 of 3): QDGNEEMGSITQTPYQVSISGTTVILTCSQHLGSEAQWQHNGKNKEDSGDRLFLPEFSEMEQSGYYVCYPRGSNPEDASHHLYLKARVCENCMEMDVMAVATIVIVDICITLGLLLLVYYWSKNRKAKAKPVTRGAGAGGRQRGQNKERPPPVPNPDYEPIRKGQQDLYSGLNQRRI
T2 sequence (Q95LI8 22-171, chain 2 of 3): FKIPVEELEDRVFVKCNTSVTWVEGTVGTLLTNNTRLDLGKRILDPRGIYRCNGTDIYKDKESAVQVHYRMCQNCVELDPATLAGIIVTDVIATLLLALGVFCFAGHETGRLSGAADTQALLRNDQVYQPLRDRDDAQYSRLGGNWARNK
T2 sequence (Q95LI7 23-181, chain 3 of 3): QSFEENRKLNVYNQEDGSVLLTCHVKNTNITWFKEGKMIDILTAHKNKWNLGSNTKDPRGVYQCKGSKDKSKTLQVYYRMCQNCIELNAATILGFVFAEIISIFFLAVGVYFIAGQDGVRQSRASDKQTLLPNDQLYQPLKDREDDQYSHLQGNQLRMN

T1 sequence (P07766 23-207, chain 1 of 3): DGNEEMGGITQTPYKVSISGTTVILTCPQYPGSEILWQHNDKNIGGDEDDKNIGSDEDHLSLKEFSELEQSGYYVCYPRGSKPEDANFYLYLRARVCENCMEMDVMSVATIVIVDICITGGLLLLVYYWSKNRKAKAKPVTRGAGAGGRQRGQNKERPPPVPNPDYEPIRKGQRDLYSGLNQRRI
T1 sequence (P04234 22-171, chain 2 of 3): as the sequence (Q95LI8 22-171, chain 2 of 3) above, with V5I, K15N, V20I, T32S, N33D, N34I, A64T, N74S, L83V, R141H counted along it
T1 sequence (P09693 23-182, chain 3 of 3): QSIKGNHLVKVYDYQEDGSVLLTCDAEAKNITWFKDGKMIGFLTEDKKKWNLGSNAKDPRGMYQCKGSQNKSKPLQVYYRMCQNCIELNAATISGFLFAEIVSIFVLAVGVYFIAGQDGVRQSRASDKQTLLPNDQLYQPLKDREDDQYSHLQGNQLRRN

FACS MFI (human CD3 [1])	FACS MFI (human CD3 [8])	FACS MFI (cynomolgus CD3)	Binder	other results
55200 MFI			20-E11-E11-C2 (antibody, V domains shown, mouse monoclonal (hybridoma) antibody) VH: EVQLQQSGPEVVKPGASVKISCKASGYTFTDYYMNWVKQSHGKNLEWIGDINPIHGGISSNQKFSDKATLTVDKSSNTAYLELRSLTSEDSAIYYCARRIYYGYDWYFDVWGTGTTVTVSS VL: DIVLSQSPAIMSASPGERVTMTCSASSSVTSRYFFWYQQKPGSSPKLWIYSTSNLASGVPVRFSGSGSGTSYSLTINNMAAEDAATYYCQQYSTSPSTFGAGTKLELK	
65200 MFI			7-D8-G12-E4 (antibody, V domains shown, mouse monoclonal (hybridoma) antibody) VH: EVKLVESGGGLVKPGGSLKLSCAASGFTFSSYPMSWVRQTPAKRLEWVATISSGGGNTYYPDSVKGRFTISRDNARNTLYLQMSSLRSEDTAMYYCARGLYWYFDVWGAGTTVTVSS VL: DIVLTQSPLSLPVSLGDQASISCRSSQSIAHSNGDTYLEWYLQNPGQSPKLLIYKVSNRISGVPDRFSGSGSGTDFTLKISRVEAEDLGVYYCFQGSHVPYTFGGGTKLEIK	
21800 MFI			3-C6-C11-F12 (antibody, V domains shown, mouse monoclonal (hybridoma) antibody) VH: EVHLVESGGGLVQPGGSRKLSCAGSGFTFSTYGMHWVRQAPEKGLEWVAYISNGGSTIYYADSVKGRFTISRDNPNDTLFLHMTSLGSEDTAMYYCARPTWGGFAYWGQGTLVTVSA VL: DIVLTQSPLSLPVSLGDQASISCRSSQSIAHSNGDTYLEWYLQNPGQSPKLLIYKVSNRISGVPDRFSGSGSGTDFTLKISRVEAEDLGVYYCFQGSHVPYTFGGGTKLEIK	
80300 MFI			16-F2-C11-D9 (antibody, V domains shown, mouse monoclonal (hybridoma) antibody) VH: EVQLQQSGPELVKPGASVKMSCKASGYTFTDFNIHWVKQSLGKSLEWIGYINPNDGGSTYNQKFKGKATLTINKSSSSAYMELRSLTSEDSAVYYCAIPFLDSWGQGTSVTVSS VL: TLMMTQSPSSMYASLGERVTITCKASQDINSYLRWYQQKPGKSPKTLIYGASSLVDGVPSRFSGRGSGQDYSLTISSLEYEDMGIYYCLQYDEVPLTFGAGTKLELK	
16800 MFI			4-F12-F1-A4 (antibody, V domains shown, mouse monoclonal (hybridoma) antibody) VH: EVKLVESGGGLVKPGGSLKLSCAASGFTFSSYTMSWIRQTPAKRLEWVATISSGGGNTFYADSVKGRFTISRDNARNTLNLQMSSLRSEDTAMYYCARSLYYYDGTYVRKDYYAMDYWGQGSSVTVSS VL: DIQMTQSPASLSVSVGETVTISCRASENIFSNLAWYQQKQGKSPQLLVYAATNLAEGVPSRFSGSRSGTQFSLKINSLQSEDFGSYYCQQFWGTPWTFGGGTKLEVK	
			ch40-C12-C10-E9 (antibody, V domains shown) VH: EVQLQLSGPELVKPGASVKMSCKASGYTFSSYVIHWVKQKPGQGLEWIGYINPYNDVIKYNEKFKGKATLTSDKSSSTAYMELSSLTSEDSAVYYCARDSYYSYDGFAYWGQGTLVTVSA VL: QIVLTQSPAIMSASPGEKVTMTCSASSSVSYMHWYQQKSGTSPKRWIYDTSKLASGVPARFSGSGSGTSYSLTISSMEAEDAATYYCQQWSSNPPTFGGGTKVEIK	EC50 (human CD3 [2]): 1.01 nM; Top FACS signal (human CD3 [2]): 2540; EC50 (human CD3 [3]): 0.45 nM; Top FACS signal (human CD3 [3]): 1620; EC50 (human CD3 [4]): 0.41 nM; Top FACS signal (human CD3 [4]): 2940; EC50 (activation of Jurkat-NFAT-Luc cells) (human CD3 [5]): 24.2 nM; Top FACS signal (activation of Jurkat-NFAT-Luc cells) (human CD3 [5]): 810; EC50_Fold change (Jurkat-NFAT-luciferase activation, normalized to ch40-C12-C10-E9) (human CD3 [6]): 1 fold; Top FACS signal_Fold change (Jurkat-NFAT-luciferase activation, normalized to ch40-C12-C10-E9) (human CD3 [6]): 1 fold; EC50_Fold change (Jurkat-NFAT-luciferase activation, normalized to ch40-C12-C10-E9) (human CD3 [7]): 1 fold; Top signal_Fold change (Jurkat-NFAT-luciferase activation, normalized to ch40-C12-C10-E9) (human CD3 [7]): 1 fold
13100 MFI			40-C12-C10-E9 (antibody, V domains shown, mouse monoclonal (hybridoma) antibody) VH: EVQLQLSGPELVKPGASVKMSCKASGYTFSSYVIHWVKQKPGQGLEWIGYINPYNDVIKYNEKFKGKATLTSDKSSSTAYMELSSLTSEDSAVYYCARDSYYSYDGFAYWGQGTLVTVSA VL: QIVLTQSPAIMSASPGEKVTMTCSASSSVSYMHWYQQKSGTSPKRWIYDTSKLASGVPARFSGSGSGTSYSLTISSMEAEDAATYYCQQWSSNPPTFGGGTKVEIK	
53800 MFI			2-F12-A6-G2 (antibody, V domains shown, mouse monoclonal (hybridoma) antibody) VH: EVQLVESRPGLVAPSQSLSITCTVSGFSLTSYGVSWVRQPPGKGLEWLGVIWGDGNTNYNSDLKTSLSISKDNSKSQVFLKLDSLQTDDTATYYCAKVSYWYFDVWGTGTTVTVSS VL: DIQLTQPPASLSASVGETVTITCRASENIYSYLAWYQQKQGKSPQLLVYNAKTLPEGVPSRFSGSGSGTQFSLKINSLQPEDFGTYYCQHHYGTPPTFGTGTKLELK	
			ch8-B12-F9-B11 (antibody, V domains shown) VH: EVQLVESGGGIVKPGGSRKLSCAASGFTFSDYGMHWVRQAPEKGLEWIAYISSASGKIYYADTVKGRFTISRDNAKNILFLQMTSLRSEDTAMYYCARVLRWSVNYVMDYWGQGTSVTVSS VL: DIVMTQSPSSLAVSAGEKVTMNCESSQSVLYSSNQKNYLAWYQQKPGQSPKLLIYWASTRESGVPDRFTGTGSGTDFTLTISSVQAEDLAVYYCHQYLSSWTFGGGTKLEIK	EC50 (human CD3 [2]): 18 nM; Top FACS signal (human CD3 [2]): 2720; EC50 (activation of Jurkat-NFAT-Luc cells) (human CD3 [5]): 11.3 nM; Top FACS signal (activation of Jurkat-NFAT-Luc cells) (human CD3 [5]): 457
67100 MFI			8-B12-F9-B11 (antibody, V domains shown, mouse monoclonal (hybridoma) antibody) VH: EVQLVESGGGIVKPGGSRKLSCAASGFTFSDYGMHWVRQAPEKGLEWIAYISSASGKIYYADTVKGRFTISRDNAKNILFLQMTSLRSEDTAMYYCARVLRWSVNYVMDYWGQGTSVTVSS VL: DIVMTQSPSSLAVSAGEKVTMNCESSQSVLYSSNQKNYLAWYQQKPGQSPKLLIYWASTRESGVPDRFTGTGSGTDFTLTISSVQAEDLAVYYCHQYLSSWTFGGGTKLEIK	
	126 MFI	400 MFI	124E3D6 (antibody, V domains shown, mouse monoclonal (hybridoma) antibody) VH: QVQLQQPGTELVKPGASVKLSCKASGYTFTSYWMHWVKQRPGQGLEWIGNINPSNGDTNYNEKFKSKATLTVDKSSSTAYMQLSSLTSEDSAVYYCARDRSSQYYFDYWGQGTTLTVSS VL: DIVMSQSPSSLAVSAGEKVTMSCKSSQSLLNSRTRKNYLAWYQQKPGQSPKLLIYWASTRESGVPDRFTGSGSGTDFTLTISSVQAEDLAVYYCKQSYNLRTFGGGTKLEIK	
	930 MFI	1920 MFI	127E2D3 (antibody, V domains shown, mouse monoclonal (hybridoma) antibody) VH: QVQLQQPGTELVKPGASVKLSCKASGYTFTSYWMHWVKQRPGEGLEWIGNIYPGSSSINYNEKFKSKATLTVDKSSSTAYMQLSSLTSEDSAVYYCARDRSSQYYFDYWGQGTTLTVSS VL: DIVMSQSPSSLAVSAGEKVTMSCKSSQSLLNSRTRKNYLAWYQQKPGQSPKLLIYWASTRESGVPDRFTGSGSGTDFTLTISSVQAEDLAVYYCTQSYNLRTFGGGTKLEIK	
	1860 MFI	2230 MFI	147C6F3 (antibody, V domains shown, mouse monoclonal (hybridoma) antibody) VH: QVQLQQPGTELVKPGASVKLSCKASGYTFDSYWMHWVKQRPGQGLEWIGNLNPSNGEINYNEKFKHKATLTVDKSSSTAYMQLSSLTSEDSAVYYCSRDRSSQYYFDYWGQGTTLTVSS VL: DIVMSQSPSSLAVSAGEKVTLSCKSSQSLLNSRTRKNYLAWYQQKSGQSPKLLMYWASTRESGVPDRFTGSGSGTDFTLTITNVQAEDLAVYYCKQSYILRTFGGGTKLEIK	
	681 MFI	1780 MFI	133B4C7 (antibody, V domains shown, mouse monoclonal (hybridoma) antibody) VH: QVQLQQPGTELVKPGASVKLSCKASGYTFTSYWMHWVKQRPGQGLEWIGNINPSNGDTNFNEKFKSKATLTVDKSSSTAYMQLSSLTSEDSAVYYCARDRSSQYYFDYWGQGTTLTVSS VL: DIVMSQSPSSLAVSAGEKVTMSCNSSQSLLNSRTRKNYLAWYQQKPGQSPKLLIYWASTRESGVPDRFTGSGSGTDFTLTISSVQAEDLAVYYCKQSYTLRTFGGGTKLEIK	
	2450 MFI	2530 MFI	147E11E2 (antibody, V domains shown, mouse monoclonal (hybridoma) antibody) VH: QVQLQQPGTELVKPGTSVKLSCKASGYTFTSYWMHWVKQRPGQGLEWIGNINPSNGATNYNEKFKSKATLTVDKSSSTAYMQLSSLTSEDSAVYYCARDRSSQYYFDYWGQGTTLTVSS VL: DIVMSQSPSSLAVSAGEKVTMSCKSSQSLLNSRSRKNYLAWYQQKPGQSPKLLIYWASTRESGVPDRFTGSGSGTDFTLTISSVQAEDLAVYYCTQSYTLRTFGGGTKLEIK	
	872 MFI	2040 MFI	140D2B10 (antibody, V domains shown, mouse monoclonal (hybridoma) antibody) VH: QVQLQQPGTELVKPGASVKLSCKASGYTFTSYWMHWVKQRPGQGLEWIGNINPSNGESNYNEKFKSKATLTVDKSSSTAYMQLSSLTSEDYAVYYCARDRSSQYYFDYWGQGTTLTVSS VL: DIVMSQSPSSLAVSAGEKVTMSCKSSQSLLNSRTRKNYLAWYQQKPGQSPKLLIYWASTRESGVPDRFTGSGSGTDFTLTISSVQAEDLAVYYCKQSYTLRTFGGGTKLEIK	
	1620 MFI	2220 MFI	126A11A4 (antibody, V domains shown, mouse monoclonal (hybridoma) antibody) VH: QVQLQQPGTELVKPGASVKLSCKASGYTFTSYWMHWVKQRPEQGLEWIGNINPSNGDTNYNEKFKSKATLTVDKASNTAYMQLSSLTSEDSAVYYCGRDRSSQYYFDYWGQGTTLTVSS VL: DIVMSQSPSSLAVSAGEKVTMSCKSSQSLLNSRTRKNYLAWYQQKPGQSPKLLIYWASTRESGVPDRFTGSGSGTDFTLTISSVQAEDLAVYFCKQSFILRTFGGGTKLEIK	
51000 MFI			7-D9-G10-H2 (antibody, V domains shown, mouse monoclonal (hybridoma) antibody) VH: EVQLQQSGPELVKPGASVKISCKASGYSFTGYFMNWVKQSHGKSLEWIGRFNPYNGDTFYNQNFKGKATLTVDKSSSTAHMELRSLTSEDSAVYYCARGDYWGQGTTLTVSS VL: not shown	
